Test results published in patent publication US20150232570A1 (ONCOMED PHARMACEUTICALS, published 2015).

T1: recombinant human NOTCH1 protein (human, UniProt P46531 1426-1731, limits assumed)
T1 construct: NOTCH1 proteins'
T1 sequence (looked up): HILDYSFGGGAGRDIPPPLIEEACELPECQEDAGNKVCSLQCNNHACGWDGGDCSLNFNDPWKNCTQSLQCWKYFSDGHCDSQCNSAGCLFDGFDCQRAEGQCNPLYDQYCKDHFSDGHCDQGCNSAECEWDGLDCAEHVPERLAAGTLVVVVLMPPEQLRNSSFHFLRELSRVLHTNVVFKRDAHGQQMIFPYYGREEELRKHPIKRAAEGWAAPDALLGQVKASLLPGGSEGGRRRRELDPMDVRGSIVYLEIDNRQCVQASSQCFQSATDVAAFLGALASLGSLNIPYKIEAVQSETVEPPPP

B1: murine monoclonal antibody 52M51 (antibody, mouse IgG1, V domains shown)
VH: QVQLQQSGAELMKPGASVKISCKAAGYTMRGYWIEWIKQRPGHGLEWIGQILPGTGRTNYNEKFKGKATFTADTSSNTANMQLSSLTSEDSAVYYCARFDGNYGYYAMDYWGQGSSVTVSS
VL: QAVVTQESALTTSPGETVTLTCRSSTGAVTTSNYANWVQEKPDHLFTGLIGGTNNRAPGVPARFSGSLIGDKAALTITGAQTEDEAIYFCALWYSNHWVFGGGTKLTVLG
notes: Mouse antibody purified from hybridoma supernatant; also called 52M51 anti-NOTCH1 antibody; ATCC PTA-9405
B2: humanized antibody 52M51-H4L3 (antibody, human IgG2, lambda, V domains shown)
VH: QVQLVQSGAEVKKPGASVKISCKVSGYTLRGYWIEWVRQAPGKGLEWIGQILPGTGRTNYNEKFKGRVTMTADTSTDTAYMELSSLRSEDTAVYYCARFDGNYGYYAMDYWGQGTTVTVSS
VL: SQAVVTQEPSLTVSPGGTVTLTCRSSTGAVTTSNYANWFQQKPGQAPRTLIGGTNNRAPGVPARFSGSLLGGKAALTLSGAQPEDEAEYYCALWYSNHWVFGGGTKLTVLG
notes: Human IgG2 heavy chain and lambda (IgLC1) light chain; also called OMP-52M51; ATCC PTA-9549
B3: humanized antibody 52M51-H4L4 (antibody, human IgG2, lambda, V domains shown)
VH: B2 VH
VL: SQTVVTQEPSFSVSPGGTVTLTCRSSTGAVTTSNYANWYQQTPGQAPRTLIGGTNNRAPGVPDRFSGSILGNKAALTITGAQADDESDYYCALWYSNHWVFGGGTKLTVLG
notes: Human IgG2 heavy chain and lambda (IgLC1) light chain

Target: T1, recombinant human NOTCH1 protein
Assay: SPR (Biacore 2000), NOTCH1 protein amine-coupled to chip, IgG injected
Procedure: The affinities for human and mouse NOTCH11 were determined using a Biacore 2000 instrument. Briefly, recombinant human and mouse NOTCH1 proteins were immobilized on a CMS chip using standard amine based chemistry (NHS/EDC). Different antibody concentrations were injected over the protein surfaces and kinetic data were collected over time. The data was fit using the simultaneous global fit equation to yield dissociation constants (KD, nM) for each NOTCH1 protein (Table 2).

Row | Kd [nM] | Binder
1 | 2.86 | B1
2 | 4.33 | B2
3 | 7.35 | B3
